Starred links: 1 amine or outer side, 2 acyl side, 3 side chain; linkers in the order of their positions; H or OH if unused. Positions of bridges follow the written chain, without caps; N, C: chain ends. Non-standard residues stand in square brackets, D forms with d. No end group written: not given here. Dab(acetyl) = 2-amino-4-acetylamino-butanoic acid residue (N-γ-acetyl-diaminobutyric acid), CC(=O)NCC[C@H](N[*:1])C(=O)[*:2]; COCH2 = acetyl group that carries the bridge; hCys = N[C@@H](CCS)C(=O)O; Dab = NCC[C@H](N)C(=O)O; Dap = NC[C@H](N)C(=O)O
Biological target: T1, human integrin αvβ5 (human, UniProt P06756 31-992; P18084 24-719, limits assumed)
T1 construct: Heterodimer flowed as analyte at 30, 100, 300 and 1,000 nM in HEPES buffer with 5 mM MgCl2
Assay: SPR, Biacore 3000, peptide immobilised; B = KD more than 50 nM and 100 nM or less

T1 sequence (P06756 31-992 limits assumed, chain 1 of 2): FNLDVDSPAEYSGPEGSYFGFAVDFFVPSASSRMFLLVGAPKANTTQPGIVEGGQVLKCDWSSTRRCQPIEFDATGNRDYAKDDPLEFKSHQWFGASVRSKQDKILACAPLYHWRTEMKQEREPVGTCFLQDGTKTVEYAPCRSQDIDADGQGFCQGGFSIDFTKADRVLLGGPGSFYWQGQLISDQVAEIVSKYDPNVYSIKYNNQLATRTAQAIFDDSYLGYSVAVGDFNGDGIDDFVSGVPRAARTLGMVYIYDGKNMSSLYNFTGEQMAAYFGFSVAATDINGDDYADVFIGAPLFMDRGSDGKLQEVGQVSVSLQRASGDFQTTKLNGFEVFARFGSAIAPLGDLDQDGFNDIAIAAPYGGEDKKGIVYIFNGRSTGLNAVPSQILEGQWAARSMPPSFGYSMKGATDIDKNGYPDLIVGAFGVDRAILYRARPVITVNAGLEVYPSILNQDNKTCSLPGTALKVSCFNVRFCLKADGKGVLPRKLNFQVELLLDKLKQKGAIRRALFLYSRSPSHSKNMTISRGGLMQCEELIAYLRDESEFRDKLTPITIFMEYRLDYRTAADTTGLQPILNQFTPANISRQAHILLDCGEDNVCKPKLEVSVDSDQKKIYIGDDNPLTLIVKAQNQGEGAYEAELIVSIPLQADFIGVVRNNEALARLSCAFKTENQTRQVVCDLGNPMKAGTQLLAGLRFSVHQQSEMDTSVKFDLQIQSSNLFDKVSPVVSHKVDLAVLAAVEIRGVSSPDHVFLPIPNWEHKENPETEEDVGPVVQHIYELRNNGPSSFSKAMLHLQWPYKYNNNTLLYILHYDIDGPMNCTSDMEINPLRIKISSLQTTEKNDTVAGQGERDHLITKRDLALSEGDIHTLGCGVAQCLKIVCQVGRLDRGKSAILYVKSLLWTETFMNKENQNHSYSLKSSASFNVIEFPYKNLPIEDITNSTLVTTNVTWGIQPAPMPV
T1 sequence (P18084 24-719 limits assumed, chain 2 of 2): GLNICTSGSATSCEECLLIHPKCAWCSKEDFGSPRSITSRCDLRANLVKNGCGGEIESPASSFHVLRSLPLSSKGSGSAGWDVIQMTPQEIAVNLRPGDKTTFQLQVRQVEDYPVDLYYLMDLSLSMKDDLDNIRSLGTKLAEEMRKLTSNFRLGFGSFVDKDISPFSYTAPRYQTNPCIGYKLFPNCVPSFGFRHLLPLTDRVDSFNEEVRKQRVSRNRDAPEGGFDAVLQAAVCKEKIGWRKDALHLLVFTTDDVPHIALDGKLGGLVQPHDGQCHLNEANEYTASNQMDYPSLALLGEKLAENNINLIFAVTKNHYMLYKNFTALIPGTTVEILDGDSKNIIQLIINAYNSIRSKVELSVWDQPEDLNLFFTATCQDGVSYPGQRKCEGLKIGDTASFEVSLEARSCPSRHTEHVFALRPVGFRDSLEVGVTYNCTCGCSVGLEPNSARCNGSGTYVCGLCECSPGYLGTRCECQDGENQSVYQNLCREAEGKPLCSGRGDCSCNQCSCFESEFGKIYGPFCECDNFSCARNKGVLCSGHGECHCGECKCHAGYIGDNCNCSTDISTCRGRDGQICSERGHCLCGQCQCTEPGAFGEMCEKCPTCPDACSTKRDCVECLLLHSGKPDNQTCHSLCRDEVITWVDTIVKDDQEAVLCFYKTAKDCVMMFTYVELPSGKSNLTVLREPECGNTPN

Binder | dissociation constant (KD)
KKK[Dap](COCH2)EPRGDNYRC (thioether 4-13) [Cyclic peptide 167] | 50 to 100 nM
KKK[hCys]VPRGDTFT[Dab(acetyl)] (thioether 4-13) [Cyclic peptide 154] | 50 to 100 nM
KKK[hCys]TPRGDSFA[Dab(acetyl)] (thioether 4-13) [Cyclic peptide 156] | 50 to 100 nM
KKKA[hCys]TTRGDSFA[Dab](COCH2)A (thioether 5-14) [Cyclic peptide 161] | 50 to 100 nM

— US20220089647A1 (FUJIFILM, published 2022)
